Assays:
mfTMPRSS6_S751A-MMH = molecular target: T1, mfTMPRSS6_S751A-MMH (Macaca fascicularis, UniProt Q8IU80 77-811 (human entry)); assay: SPR, mAb captured via anti-hFc, 37 C
T1 construct: also called REGN5977; Macaca fascicularis TMPRSS6 extracellular domain with a S751A mutation and a C-terminal myc-myc-hexahistidine tag
T1 chain: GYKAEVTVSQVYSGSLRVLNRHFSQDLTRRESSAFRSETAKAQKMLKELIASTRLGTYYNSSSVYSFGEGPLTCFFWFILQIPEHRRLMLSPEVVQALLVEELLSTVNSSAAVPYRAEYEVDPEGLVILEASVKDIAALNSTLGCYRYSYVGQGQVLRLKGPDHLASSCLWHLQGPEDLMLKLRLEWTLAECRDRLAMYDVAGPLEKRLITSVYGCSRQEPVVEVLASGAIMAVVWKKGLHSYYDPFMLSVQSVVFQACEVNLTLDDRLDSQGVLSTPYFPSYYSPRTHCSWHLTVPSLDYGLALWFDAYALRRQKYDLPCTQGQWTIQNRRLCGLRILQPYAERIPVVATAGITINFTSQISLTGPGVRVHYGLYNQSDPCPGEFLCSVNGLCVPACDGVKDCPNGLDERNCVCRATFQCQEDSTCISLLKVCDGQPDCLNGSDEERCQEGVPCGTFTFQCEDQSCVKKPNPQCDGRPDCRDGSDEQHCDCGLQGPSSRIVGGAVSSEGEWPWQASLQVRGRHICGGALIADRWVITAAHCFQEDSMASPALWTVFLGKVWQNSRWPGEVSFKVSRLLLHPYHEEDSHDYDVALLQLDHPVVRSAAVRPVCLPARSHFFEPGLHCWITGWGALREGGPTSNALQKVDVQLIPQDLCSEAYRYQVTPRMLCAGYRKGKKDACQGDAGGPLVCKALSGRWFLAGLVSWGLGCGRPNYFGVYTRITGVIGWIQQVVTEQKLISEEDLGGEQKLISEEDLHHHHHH
Experimental: (§1) The equilibrium dissociation constant (KD) for TMPRSS6 binding to different TMPRSS6 monoclonal antibodies (mAbs) was determined using a real-time surface plasmon resonance biosensor using a Biacore 4000 instrument. All binding studies were performed in 10 mM HEPES, 150 mM NaCl, 3 mM EDTA, and 0.05% v/v Surfactant Tween-20, pH 7.4 (HBS-ET) running buffer at 25° C. and 37° C. The Biacore CM5 sensor chip surface was first derivatized by amine coupling with a human Fc specific mouse mAb to capture different TMPRSS6 mAbs. […] Different concentrations (100 nM to 3.7 nM, 3-fold serial dilution) of the TMPRSS6 reagent proteins prepared in HBS-EP running buffer were injected over the TMPRSS6 mAb captured surface for 150 seconds at a flow rate of 30 μL/min and their dissociation in HBS-ET running buffer was monitored for 10 minutes. At the end of each cycle, the TMPRSS6 mAb captured surface was regenerated using a 12 second injection of 20 mM phosphoric acid.
(§2) The association rate (kₐ) and dissociation rate (kd) were determined by fitting the real-time binding sensorgrams to a 1:1 binding model with mass transport limitation using Scrubber 2.0 (BioLogic Software) curve-fitting software. Binding dissociation equilibrium constant (KD) and dissociative half-life (t½) were calculated from the kinetic rates as: […]

hTMPRSS6_S762A-MMH = molecular target: T2, hTMPRSS6_S762A-MMH (human, UniProt Q8IU80 77-811); assay: SPR, mAb captured via anti-hFc, 37 C
T2 construct: also called REGN5330; human TMPRSS6_S762A-MMH
Experimental: as §1, §2

[1] = molecular target: T3, full-length mouse TMPRSS6 with a C-terminal triple myc tag on HEK293.hHJV cells (HEK293.hHJV/3xMyc.mTMPRSS6) (mouse, UniProt Q9DBI0 1-811); assay: cell-based or functional assay
T3 sequence: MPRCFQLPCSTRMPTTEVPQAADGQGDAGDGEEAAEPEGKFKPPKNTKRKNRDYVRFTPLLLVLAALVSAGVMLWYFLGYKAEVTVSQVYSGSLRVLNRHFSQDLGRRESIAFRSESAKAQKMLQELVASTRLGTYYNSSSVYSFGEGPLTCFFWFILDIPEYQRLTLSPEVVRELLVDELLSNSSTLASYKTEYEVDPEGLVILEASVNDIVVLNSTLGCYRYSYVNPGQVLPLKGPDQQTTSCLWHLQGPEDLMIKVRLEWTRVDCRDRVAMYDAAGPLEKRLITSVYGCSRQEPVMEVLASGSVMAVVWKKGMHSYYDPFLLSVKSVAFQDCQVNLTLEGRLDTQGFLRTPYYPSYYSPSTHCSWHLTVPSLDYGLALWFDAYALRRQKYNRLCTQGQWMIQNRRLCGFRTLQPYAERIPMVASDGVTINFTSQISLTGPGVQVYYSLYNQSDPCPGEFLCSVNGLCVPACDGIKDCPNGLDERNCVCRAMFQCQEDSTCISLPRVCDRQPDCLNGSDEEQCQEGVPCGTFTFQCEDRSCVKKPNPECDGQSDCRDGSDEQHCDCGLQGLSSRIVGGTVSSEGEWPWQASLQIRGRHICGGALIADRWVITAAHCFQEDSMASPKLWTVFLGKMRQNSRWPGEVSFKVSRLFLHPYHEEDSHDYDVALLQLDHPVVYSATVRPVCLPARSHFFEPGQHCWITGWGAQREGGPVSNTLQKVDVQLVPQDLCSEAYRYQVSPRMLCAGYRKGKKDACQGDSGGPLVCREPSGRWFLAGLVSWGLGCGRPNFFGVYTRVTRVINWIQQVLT

Binder | 100 nM Ag Bound (mfTMPRSS6_S751A-MMH) | Kd (mfTMPRSS6_S751A-MMH) | koff (mfTMPRSS6_S751A-MMH) | kon (mfTMPRSS6_S751A-MMH) | t½ (mfTMPRSS6_S751A-MMH) | 100 nM Ag Bound (hTMPRSS6_S762A-MMH) | Kd (hTMPRSS6_S762A-MMH) | koff (hTMPRSS6_S762A-MMH) | kon (hTMPRSS6_S762A-MMH) | t½ (hTMPRSS6_S762A-MMH) | Geometric Mean Fluorescence Intensity of cell surface hHJV, 50 nM mAb [1] | Median Fluorescence Intensity of cell surface hHJV, 50 nM mAb [1]
REGN7974 (antibody, human IgG4 S228P, kappa, V domains shown, fully human; human IgG4 Fc with hinge S108P; also called mAb41422) VH: EVQLVESGGGLVQPGRSLRLSCIASGFNFGDYGMSWVRQAPGKGLEWVGFIRSKAYGGTTEYAASVKGRFTISRDDSKSIAYLQMNSLKTEDAAMYYCSRDYYDILTGYYGDYWGQGTLVTVSS VL: not shown | 183 RU | 16.1 nM | 0.00405 s⁻¹ | 251000 M⁻¹ s⁻¹ | 2.9 min | 206 RU | 21.2 nM | 0.00235 s⁻¹ | 111000 M⁻¹ s⁻¹ | 4.9 min | 6960 | 6220
REGN7999 (antibody, human IgG4 S228P, kappa, V domains shown, fully human; human IgG4 Fc with hinge S108P; also called mAb41450) VH: EVQLVESGGGLVQPGGSLRLSCAASGFTFSSYAMTWVRQAPGKGLEWVSAISGSDTSTYYADSVKGRFTISRDNSKNTLFLQMNSLRAEDTAVYYCAKHQDYDFSYYYSAMDVWGQGTTVTVSS VL: DIQMTQSPSSLSASVGDRVIITCRASQDFNSWLAWYQQKPGKAPKLLIYAASSLQSGVPSRFSGSGSGTDFTLTISSLQPEDFATYYCQQTDSFPFTFGPGTKVDIKR | 143 RU | 0.75 nM | 0.000306 s⁻¹ | 408000 M⁻¹ s⁻¹ | 38 min | 129 RU | 2.3 nM | 0.000354 s⁻¹ | 154000 M⁻¹ s⁻¹ | 33 min | 23700 | 33600
REGN7977 (antibody, V domains shown, fully human; human IgG4 Fc with hinge S108P; also called mAb41465) VH: EVQLVESGGGLVKPGGSLRVSCAASGVTFSNVWMSWVRQVPGKGLEWVGRIKSKTDGGTTDYAAPVKGRFTISKDDSKNTLFLQMNSLKTEDTAVYYCTTETGDFWSGYYPRFQHWGQGTLVTVSS VL: DIQMTQSPSSLSASVGDRVTITCRASQYISTYLNWYQQKPGKAPSLLIYAASSLQSGVPSRFSGSGSGTDFTLTISSLQPEDFASYSCQQSYSTPPYTFGQGTKLEIKR | 133 RU | 11.9 nM | 0.00247 s⁻¹ | 207000 M⁻¹ s⁻¹ | 4.7 min | 134 RU | 11 nM | 0.00124 s⁻¹ | 113000 M⁻¹ s⁻¹ | 9 min | 9130 | 7030
REGN7969 (antibody, human IgG4 S228P, kappa, V domains shown, fully human; human IgG4 Fc with hinge S108P; also called mAb37746) VH: QVQLVESGGGVVQPGRSLRLSCAASGFTFNNYGMHWVRQAPGKGLEWVAIISYDGSNEYYSDSVKGRFTISRDNSKNTLYLQMNSLRAEDTAVYYCARDQDYGGNLFHYWGQGTLVTVSS VL: not shown | 105 RU | 3.27 nM | 0.000924 s⁻¹ | 283000 M⁻¹ s⁻¹ | 12 min | 110 RU | 4.4 nM | 0.000975 s⁻¹ | 222000 M⁻¹ s⁻¹ | 12 min | 8390 | 7810
REGN7971 (antibody, human IgG4 S228P, kappa, V domains shown, fully human; human IgG4 Fc with hinge S108P; also called mAb37763) VH: QVQLVESGGGVVQPGRSLRLSCAASGFTFSTYGMHWVRQAPGKGLEWVAIISYDGSNDYYLDSVKGRFTISRDNSKNTLYLQMNNLRAEDTAVYYCAKDQGYGGNLFASWGQGTLVTVSS VL: not shown | 160 RU | 1.68 nM | 0.00061 s⁻¹ | 363000 M⁻¹ s⁻¹ | 19 min | 169 RU | 2.44 nM | 0.000637 s⁻¹ | 261000 M⁻¹ s⁻¹ | 18 min | 8230 | 7470
REGN8023 (antibody, human IgG4 S228P, kappa, V domains shown, fully human; human IgG4 Fc with hinge S108P; also called mAb37699) VH: EVQLVESGGGLVKPGGSLRISCAASGFIFVDYAMHWVRQAPGKGLEWVSGISWNSGSIGYADSVKGRFTISRDNAKKSLYLQMSGLRPEDTALYYCVKSGFYYVRSYFDNWGQGTLVTVSS VL: DIVMTQSPLSLPVTPGEPASISCRSSQSLLDSDDGNTYLDWYLRKPGQSPQLLIYTLSYRASGVPDRFSGSGSGTDFTLKISRVEADDVGVYYCMQRIEFPLTFGGGTKVEIKR | 206 RU | 1 nM | 0.000634 s⁻¹ | 632000 M⁻¹ s⁻¹ | 18 min | 205 RU | 2.24 nM | 0.000935 s⁻¹ | 418000 M⁻¹ s⁻¹ | 12 min | 19000 | 19400

Reference: patent US20220411487A1 (Regeneron, published 2022)
